The nature of data set [1]: expression yield of multisite mutants. Conditions: glycan lost; control: wild type.
Data set [2] in a line: yield of purified secreted protein, SDS-PAGE. The note with it: glycan lost; control: wild type.
Data set [3] in a line: aggregation after overnight glycosidase digestion. The note with it: glycan lost; control: untreated.

B1: DORN1 extracellular domain (atDORN1-ECD; LecRK-I.9): N124N128N204N225D (protein)
parent chain: MARWLLQILIISSLHLSSVSSQQETSFVYESFLDRQNLYLDKSAIVLPSGLLQLTNASEHQMGHAFHKKPIEFSSSGPLSFSTHFVCALVPKPGFEGGHGIVFVLSPSMDFTHAESTRYLGIFNASTNGSSSYHVLAVELDTIWNPDFKDIDHNHVGIDVNSPISVAIASASYYSDMKGSNESINLLSGNPIQVWVDYEGTLLNVSVAPLEVQKPTRPLLSHPINLTELFPNRSSLFAGFSAATGTAISDQYILWWSFSIDRGSLQRLDISKLPEVPHPRAPHKKVSTLIILLPVCLAILVLAVLAGLYFRRRRKYSEVSETWEKEFDAHRFSYRSLFKATKGFSKDEFLGKGGFGEVYRGNLPQGREIAVKRVSHNGDEGVKQFVAEVVSMRCLKHRNLVPLFGYCRRKRELLLVSEYMPNGSLDEHLFDDQKPVLSWSQRLVVVKGIASALWYLHTGADQVVLHRDVKASNIMLDAEFHGRLGDFGMARFHEHGGNAATTAAVGTVGYMAPELITMGASTGTDVYAFGVFMLEVTCGRRPVEPQLQVEKRHMIKWVCECWKKDSLLDATDPRLGGKFVAEEVEMVMKLGLLCSNIVPESRPTMEQVVLYLNKNLPLPDFSPYTLGIGTFAPVLVDASSLVVSSASWSLSGPSMSSSSPNHSPYAWQSTDQPWGQTIDTKNSLHIVAEPEKPSPAVKMVTLPAEDPQSNHSSISSQRVQPVKREKRRLHQILVAFPWINKQYFKLGLPKHIVHVSLFFFLQLARL
For the protein B1, the “expression_or_secretion, percent_of_wt” value in data set [1] is reported as “decreases”.

B2: DORN1 extracellular domain (atDORN1-ECD; LecRK-I.9): N128D (protein)
parent chain: B1 parent chain
For B2, the expression_or_secretion entry in data set [2] is reported as “no change”.

B3: DORN1 extracellular domain (atDORN1-ECD; LecRK-I.9): PNGase F (protein)
parent chain: B1 parent chain
For B3, the stability_or_folding entry in data set [3] is recorded as “decreases”.

B4: DORN1 extracellular domain (atDORN1-ECD; LecRK-I.9): Endo H (protein)
parent chain: B1 parent chain
B4: the stability_or_folding result in data set [3] is given as “decreases”.

B5: DORN1 extracellular domain (atDORN1-ECD; LecRK-I.9): N204D (protein)
parent chain: B1 parent chain
For B5, the expression_or_secretion entry in data set [2] is reported as “no change”.

B6: DORN1 extracellular domain (atDORN1-ECD; LecRK-I.9): N124D (protein)
parent chain: B1 parent chain
For the protein B6, in data set [2], the expression_or_secretion entry is “no change”.

B7: DORN1 extracellular domain (atDORN1-ECD; LecRK-I.9): N124N204D (protein)
parent chain: B1 parent chain
Regarding B7, the “expression_or_secretion, percent_of_wt” value in data set [1] is given as “decreases”.

B8: DORN1 extracellular domain (atDORN1-ECD; LecRK-I.9): N124N128D (protein)
parent chain: B1 parent chain
In the case of B8, the “expression_or_secretion, percent_of_wt” value in data set [1] is reported as “decreases”.

B9: DORN1 extracellular domain (atDORN1-ECD; LecRK-I.9): N225D (protein)
parent chain: B1 parent chain
Turning to B9, the expression_or_secretion result in data set [2] is reported as “no change”.

Values taken from publication PMC5053164.
